Reference: patent US20070243589A1 (Pfizer, published 2007)
Where a chain is given by its changes, count along the chain named.

T1: biotinylated IL-22 with an N-terminal His/FLAG tag (bio.IL-22H/F) (human, UniProt Q9GZX6 34-179, biotinylated (site not stated))
T1 construct: not shown: N-terminal His/FLAG tag
T1 sequence: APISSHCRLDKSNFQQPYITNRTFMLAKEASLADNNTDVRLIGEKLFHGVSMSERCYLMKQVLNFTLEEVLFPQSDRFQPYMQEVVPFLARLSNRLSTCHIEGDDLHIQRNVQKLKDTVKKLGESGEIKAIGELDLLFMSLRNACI

T2: IL-26 (human, UniProt Q9NPH9)
T2 construct: coated on the ELISA plate at 1 µg/ml; also called human IL-26
T2 sequence (cytokine, looked up): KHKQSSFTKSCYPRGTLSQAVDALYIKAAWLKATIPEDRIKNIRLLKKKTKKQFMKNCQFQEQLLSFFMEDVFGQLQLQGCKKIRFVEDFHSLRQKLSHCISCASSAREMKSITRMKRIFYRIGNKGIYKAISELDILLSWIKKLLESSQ

T3: human IL-22 (human, UniProt Q9GZX6 34-179)
T3 sequence: T1 sequence

B1: 375G06 IgG (non-germlined) (antibody, V domains shown)
VH: EVQLVQSGAEVKKPGASVKVSCQASGYTFSDYYIHWVRQTPGQGFEWMGWVNPDTGGTRYAQKFQGWVTMTRDMSNTTAYMELPRLRDDDTAVYYCARDLTGYDYYDRWGQGTLVTVSS
VL: QSVLTQPPSMSVAPGKTATITCGGNNFRNKRVHWYQQRPGQAPVLVIYYDSDRPSGIPERFSGSRSGNTATLTISRVEAGDEADFYCQVWDFLADEAMFGGGTKLTVL
notes: IgG
B2: 376B10 IgG (non-germlined) (antibody, V domains shown)
VH: B1 VH with R85G, Y105Q, D107T, R108A
VL: QSVLTQPPSVSVAPGKTATITCGGNNFRNKRVHWYQQRPGQAPVLVIYYDSDRPSGIPERFSGSRSGNTATLTISRVEAGDEADFYCSTFDPFTDRPLFGGGTKLTVLG
notes: IgG
B3: 166B06 germlined IgG (antibody, V domains shown)
VH: QVQLVQSGAEVKKPGASVKVSCKASGYTFSDYYIHWVRQAPGQGLEWMGWVNPDTGGTRYAQKFQGRVTMTRDMSISTAYMELSRLRSDDTAVYYCARDLTGFDPFDIWGQGTLVTVSS
VL: SSVLTQPPSVSVAPGKTARITCGGNNFRNKRVHWYQQKPGQAPVLVIYYDSDRPSGIPERFSGSRSGNTATLTISRVEAGDEADYYCQVWDLFNDNGVFGGGTKLTVLG
B4: 166G05 germlined IgG (antibody, V domains shown)
VH: B3 VH
VL: B3 VL with L92F, F93L, N94T, N96S, V98S
B5: 354A08 germlined IgG (antibody, V domains shown)
VH: QVQLVQSGAEVKKPGASVKVSCKASGYTFTDYYMHWVRQAPGQGLEWVGWINPYTGGAFYAQKFRGRVTMTRDTSISTAYMELSRLRSDDTAVYYCAREPERFGDSTGQVWGRGTLVTVSS
VL: QAVLTQPPSVSGAPGQRVTISCTGSSSNIGAGYGVHWYQQLPGTAPKLLIYGNSNRPSGVPDRFSGSKSGTSASLAITGLQAEDEADYYCYHWDKEQSGYVFGGGTQLTVLG
B6: 356A11 germlined IgG (antibody, V domains shown)
VH: B5 VH with D31N, G57S, R102K, G104D, D105S, S106D, T107D, G108S, Q109D
VL: B5 VL with N53D, Y91Q, H92S, W93Y, K95N, E96S, Q97L
B7: 367D04 IgG (non-germlined) (antibody, V domains shown)
VH: EVQLVESGGGVVRPGGSLRLSCAASGFTFDDYGMNWVRQAPGKGLEWVSGVNWNGGTRDYAASVKGRFTISRDNAKNSLYLQMNSLRAEDTALYYCARGWYSGSPWSLGHWGRGTLVTVSS
VL: QAVLTQPSSVSGSPGQSVTISCTGASGDVGAYNFVSWYQQHPGKTPKLIIYDVNKRPSGVSNRFSGSKSGNTASLTISRLQAEDESDYYCSSYTSRYTTEFGGGTKVTVLG
notes: IgG
B8: 087B03 germlined IgG (antibody, V domains shown)
VH: B7 VH with Y95H, S104A, P105A, S107N, L108M, H110Y
VL: QAALTQPASVSGSPGQSITISCTGASGDVGAYNFVSWYQQHPGKAPKLIIYDVNKRPSGVSNRFSGSKSGNTASLTISGLQAEDEADYYCSSYTSTFSVVFGGGTKLTVLG
B9: GIL68 IgG (non-germlined parent) (antibody, V domains shown)
VH: B1 VH with Y103F, Y105P, Y106F, R108I
VL: B2 VL with S88Q, T89V, F90W, P92S, F93S
notes: Human IgG4 heavy chain constant domain; Cryptate labeled in the HTRF assay; also called cryptate labeled GIL68 IgG
B10: GIL45 IgG (non-germlined parent) (antibody, V domains shown)
VH: QMQLVQSGGGVVQPGRSLRLSCAASGFTFSNYGMYWVRQAPGKGLEWVAHIWYDGSNEKYADSVKGRMTVSRDNSRNTLYLQMNSLRAEDTAVYYCATEQHWITAFDIWGKGTLVTVSS
VL: QSVLTQPASVSGSPGQSITISCTGTSSDVGGYNYVSWYQQHPGKAPKLMIYEGSKRPSGVSNRFSGSKSGNTASLTISGLQAEDEADYYCSSYTTRSTRVFGGGTKLTVLG
notes: Human IgG4 heavy chain constant domain
B11: GIL01 IgG (non-germlined parent) (antibody, V domains shown)
VH: EVQLVESGGGLVTPGGSLRLSCAASGFTFSDYYMSWIRQAPGRGLEWVSAISGSGGSTYYADSVKGRITISRDNAKNSLYLQMSSLRSEDTAVYYCARGLWVWDPLDYWGRGTLVTVSS
VL: DIQMTQSPSTLSASIGDRVTITCRASEGIYHWLAWYQQKPGKAPKLLIYKASSLASGAPSRFSGSGSGTDFTLTISSLQPDDFATYYCQQYSNYPLTFGGGTKLEIKR
notes: as for B10
B12: GIL45 scFv (non-germlined parent) (scFv)
scFv: QMQLVQSGGGVVQPGRSLRLSCAASGFTFSNYGMYWVRQAPGKGLEWVAHIWYDGSNEKYADSVKGRMTVSRDNSRNTLYLQMNSLRAEDTAVYYCATEQHWITAFDIWGKGTLVTVSSGGGGSGAGGSGGGGSQSVLTQPASVSGSPGQSITISCTGTSSDVGGYNYVSWYQQHPGKAPKLMIYEGSKRPSGVSNRFSGSKSGNTASLTISGLQAEDEADYYCSSYTTRSTRVFGGGTKLTVLGAAAH
B13: 166B06 IgG (non-germlined) (antibody, V domains shown)
VH: B1 VH with Y103F, Y105P, Y106F, R108I
VL: B3 VL with S1Q, R19T, K38R, Y85F
B14: 166G05 IgG (non-germlined) (antibody, V domains shown)
VH: B1 VH with Y103F, Y105P, Y106F, R108I
VL: B2 VL with S88Q, T89V, F90W, P92F, F93L, R96S, P97G, L98S
B15: 062A09 IgG (non-germlined) (antibody, V domains shown)
VH: QVQLVESGAEVKKPGASVKVSCKASGYTFTSYGISWVRQAPGQGLEWMGWVSAYTGNTNYAQKFQGRVTMTTDTSTSTAYMELRGLRSDDTAVYYCARDRGYYDAFDIWGQGTLVTVSS
VL: B11 VL with S67F, Y91M, S92G, N93E, P95N, L96A, F98I

What follows are binders tested against T4, BSA (bovine, UniProt P02769) (assay: ELISA: wells labelled BSA, IgG at 1 µg/ml, HRP anti-human IgG, A450).
T4 construct: background wells labelled BSA; also called bovine serum albumin
Protocol: (§1) Cross species reactivity of germlined and non-germlined optimized antibodies were determined as follows: ELISA plates (Costar, Cat. #3590) were coated overnight with 1 μg/ml of rat, mouse, or human IL-22 or human IL-26 in PBS buffer. Plates were washed with PBST buffer (0.05% Tween20 in PBS) 3 times, then blocked with 1% BSA (Sigma A8918)/PBST for 1 hr at RT. Antibodies were added at 1 μg/ml, incubated 1 hr at 25° C. […] The plates were incubated for 1 hour at 25° C., then washed with PBST, and developed with TMB (KPL, Cat. #50-76-04). Reaction was stopped with 0.18 M H₂S0₄. Plates were read at OD 450 nm.

T4 sequence (P02769 25-607 limits assumed): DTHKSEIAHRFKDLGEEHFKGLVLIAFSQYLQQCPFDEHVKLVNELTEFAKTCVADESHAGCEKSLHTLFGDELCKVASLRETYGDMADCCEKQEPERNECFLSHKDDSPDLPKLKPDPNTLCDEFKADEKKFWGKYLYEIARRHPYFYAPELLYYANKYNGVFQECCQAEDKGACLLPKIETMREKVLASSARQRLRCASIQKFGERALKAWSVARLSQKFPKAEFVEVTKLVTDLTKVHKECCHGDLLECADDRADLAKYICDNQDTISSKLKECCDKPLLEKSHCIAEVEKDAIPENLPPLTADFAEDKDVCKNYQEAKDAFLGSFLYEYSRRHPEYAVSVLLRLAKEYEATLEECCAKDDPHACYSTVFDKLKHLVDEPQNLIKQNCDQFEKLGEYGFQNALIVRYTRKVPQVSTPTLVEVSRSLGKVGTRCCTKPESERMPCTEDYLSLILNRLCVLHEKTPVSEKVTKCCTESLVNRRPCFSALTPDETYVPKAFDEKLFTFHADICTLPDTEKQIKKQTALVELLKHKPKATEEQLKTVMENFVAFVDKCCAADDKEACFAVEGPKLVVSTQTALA

Question: Does B1 bind?
Answer: no binding (tested: 1 µg/ml (single concentration))

Question: Does B2 bind?
Answer: no binding (tested: 1 µg/ml (single concentration))

Question: Does B3 bind?
Answer: no binding (tested: 1 µg/ml (single concentration))

Question: Does B4 bind?
Answer: no binding (tested: 1 µg/ml (single concentration))

Question: Does B5 bind?
Answer: no binding (tested: 1 µg/ml (single concentration))

Question: Does B6 bind?
Answer: no binding (tested: 1 µg/ml (single concentration))

Question: Does B7 bind?
Answer: no binding (tested: 1 µg/ml (single concentration))

Question: Does B8 bind?
Answer: no binding (tested: 1 µg/ml (single concentration))

These binders were tested against T1, biotinylated IL-22 with an N-terminal … (assay: IL-22 receptor complex inhibition assay (bio.IL-22H/F binding to IL-22 receptor complex, DELFIA), IgG).
Protocol: Potency of purified IgG was verified in the biochemical IL-22 receptor complex inhibition assay as described below. IgG concentrations were titrated in order to obtain potency values.
(§2) Microtiter plates were coated with an IL-22 receptor complex antibody (1 μg/ml in PBS), and incubated for 1.5 hours at room temperature. Plates were washed three times in PBST, and blocked for 1 hour at room temperature with 2% MPBS. After a further 3 washes, diluted cell conditioned medium containing an IL-22 receptor complex was added and incubated overnight at 4° C. Crude scFv supernatants were prepared as described above. The following day, 25 μl of diluted scFv sample and 25 μl of bio.IL-22H/F (6 ng/ml) were added to the washed plates, and incubated for 1.5 hours at room temperature. Plates were washed 3 times in PBST, then binding of bio.IL-22H/F to the IL-22 receptor complex was detected with Europium-Streptavidin and the DELFIA® reagent kit (PerkinElmer). Time Resolved Fluorescence was measured using a Victor 2™ Plate Reader (Perkin Elmer).

Question: Which IC50 does the source give for B9 here?
Answer: 2 nM

Question: Which IC50 does the source give for B10 here?
Answer: 180 nM

Question: With B11 as the binder, how does the IC50 read?
Answer: 13 nM

Each binder was assayed against T2, IL-26 (assay: ELISA: plate coated with 1 µg/ml human IL-26, IgG at 1 µg/ml, HRP anti-human IgG, A450).
Protocol: as §1

Question: Does B1 bind?
Answer: no binding (tested: 1 µg/ml (single concentration))

Question: Does B2 bind?
Answer: no binding (tested: 1 µg/ml (single concentration))

Question: Does B3 bind?
Answer: no binding (tested: 1 µg/ml (single concentration))

Question: Does B4 bind?
Answer: no binding (tested: 1 µg/ml (single concentration))

Question: Does B5 bind?
Answer: no binding (tested: 1 µg/ml (single concentration))

Question: Does B6 bind?
Answer: no binding (tested: 1 µg/ml (single concentration))

Question: Does B7 bind?
Answer: no binding (tested: 1 µg/ml (single concentration))

Question: Does B8 bind?
Answer: no binding (tested: 1 µg/ml (single concentration))

These binders were tested against T1, biotinylated IL-22 with an N-terminal … (assay: IL-22 receptor complex inhibition assay (bio.IL-22H/F binding to IL-22 receptor complex, DELFIA), scFv).
Protocol: Both the IL-22/IL-22R binding assay (described above) and the IL-22/IL-22 receptor complex assay (described below) were used. ScFv concentrations were titrated in order to establish the clone potencies as measured by assay IC₅₀ values. These were determined using GraphPad Prism software and four-parameter logistic equation curve fitting.
as §2

Question: How did the IC50 turn out when B12 was run?
Answer: 358 nM

These binders were tested against T3, human IL-22 (assay: cell-based or functional assay).

Question: B13 was tested. Which “IC50 of IgG in BaF3-IL-22 proliferation assay” value (“IC50 of IgG” below) did it give?
Answer: 0.071 nM

Question: For B1, which “IC50 of IgG” value is on record?
Answer: 0.1 nM

Question: B14 was tested. Which “IC50 of IgG” value did it give?
Answer: 0.097 nM

Question: B2 was tested. Which “IC50 of IgG” value did it give?
Answer: 0.119 nM

Question: For B5, which “IC50 of IgG” value is on record?
Answer: 0.079 nM

Question: Which “IC50 of IgG” value does the source give for B6 here?
Answer: 0.053 nM

Question: How did the “IC50 of IgG” value turn out when B15 was run?
Answer: 0.083 nM

Question: Which “IC50 of IgG” value does the source give for B7 here?
Answer: 0.126 nM

Target: T3, human IL-22
Test: cell-based or functional assay
Remark: another data set of the same source

Question: How did the “IC50 (pM) of non-germlined IgG in BaF3-IL-22R proliferation assay” value (“IC50 (pM) of non-germlined IgG” below) turn out when B13 was run?
Answer: 109 pM

Question: For B14, which “IC50 (pM) of non-germlined IgG” value is on record?
Answer: 366 pM

Question: For B3, which “IC50 (pM) of germlined IgG in BaF3-IL-22R proliferation assay” value (“IC50 (pM) of germlined IgG” below) is on record?
Answer: 169 pM

Question: How did the “IC50 (pM) of germlined IgG” value turn out when B4 was run?
Answer: 109 pM

Question: For B5, which “IC50 (pM) of germlined IgG” value is on record?
Answer: 79 pM

Question: With B6 as the binder, how does the “IC50 (pM) of germlined IgG” value read?
Answer: 53 pM

Question: Which “IC50 (pM) of non-germlined IgG” value does the source give for B15 here?
Answer: 108 pM

Question: B8 was tested. Which “IC50 (pM) of germlined IgG” value did it give?
Answer: 118 pM
